Test results reported in paper PMC11543927, “Subtleties in Clathrin heavy chain binding boxes provide selectivity among adaptor proteins of budding yeast” (Nature Communications, 2024).

Assays:
Details in all cases: both partners purified
[1] = biological target: T1, ScChc-NTD W-box mutant (F26A, Q155A) (Saccharomyces cerevisiae, UniProt P22137 1-369, F26A | Q155A); assay: nanoDSF thermal shift; ScChc-NTD mutants 10 µM with Ent1 or Ent2 peptide, thermal ramp up to 80 °C; apparent KD from the Tm shift model
T1 construct: Clathrin heavy chain N-terminal domain, Saccharomyces cerevisiae, residues 1-369, W-box mutant; also called W mutant
T1 sequence (looked up): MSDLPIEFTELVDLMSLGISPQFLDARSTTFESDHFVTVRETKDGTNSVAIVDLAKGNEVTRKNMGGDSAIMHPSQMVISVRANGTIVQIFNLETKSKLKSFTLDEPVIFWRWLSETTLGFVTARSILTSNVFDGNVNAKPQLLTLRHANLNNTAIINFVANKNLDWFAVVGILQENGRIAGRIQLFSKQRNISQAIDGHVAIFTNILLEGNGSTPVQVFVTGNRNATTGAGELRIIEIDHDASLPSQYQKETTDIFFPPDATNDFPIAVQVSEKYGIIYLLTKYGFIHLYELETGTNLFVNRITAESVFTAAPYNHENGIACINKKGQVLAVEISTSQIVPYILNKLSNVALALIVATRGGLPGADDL

[2] = biological target: T2, ScChc-NTD Clathrin and Arrestin box mutant (Cla+Arr) (Saccharomyces cerevisiae, UniProt P22137 1-369, K63E | I87D | Q89A | K98E | Q195A | I197T | K251E); assay: as above
T2 construct: Clathrin heavy chain N-terminal domain, Saccharomyces cerevisiae, residues 1-369, Clathrin and Arrestin box mutant
T2 sequence (looked up): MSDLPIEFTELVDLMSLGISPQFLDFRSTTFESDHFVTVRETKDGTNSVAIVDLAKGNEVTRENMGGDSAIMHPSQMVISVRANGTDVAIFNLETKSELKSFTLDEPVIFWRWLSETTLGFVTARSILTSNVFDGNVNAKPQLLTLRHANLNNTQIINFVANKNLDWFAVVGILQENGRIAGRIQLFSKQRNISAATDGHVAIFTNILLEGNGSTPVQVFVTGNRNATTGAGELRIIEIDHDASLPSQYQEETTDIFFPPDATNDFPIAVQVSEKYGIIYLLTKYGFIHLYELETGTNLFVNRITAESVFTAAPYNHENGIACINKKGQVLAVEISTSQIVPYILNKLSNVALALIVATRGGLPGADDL

[3] = biological target: T3, ScChc-NTD Clathrin and W box mutant (Cla+W) (Saccharomyces cerevisiae, UniProt P22137 1-369, F26A | K63E | I87D | Q89A | K98E | Q155A); assay: as above
T3 construct: Clathrin heavy chain N-terminal domain, Saccharomyces cerevisiae, residues 1-369, Clathrin and W box mutant
T3 sequence (looked up): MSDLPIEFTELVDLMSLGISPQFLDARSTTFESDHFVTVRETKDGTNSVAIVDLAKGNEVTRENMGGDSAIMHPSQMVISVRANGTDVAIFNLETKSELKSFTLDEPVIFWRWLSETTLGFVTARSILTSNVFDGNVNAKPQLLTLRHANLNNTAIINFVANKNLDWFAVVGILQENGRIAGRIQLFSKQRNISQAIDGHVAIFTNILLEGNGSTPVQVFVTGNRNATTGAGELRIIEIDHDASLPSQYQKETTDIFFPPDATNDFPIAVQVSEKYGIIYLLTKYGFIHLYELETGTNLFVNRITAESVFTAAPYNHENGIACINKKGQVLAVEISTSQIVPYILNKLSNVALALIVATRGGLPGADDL

[4] = biological target: T4, ScChc-NTD Arrestin box mutant (Q195A, I197T, K251E) (Saccharomyces cerevisiae, UniProt P22137 1-369, Q195A | I197T | K251E); assay: as above
T4 construct: Clathrin heavy chain N-terminal domain, Saccharomyces cerevisiae, residues 1-369, Arrestin box mutant; also called Arr mutant
T4 sequence (looked up): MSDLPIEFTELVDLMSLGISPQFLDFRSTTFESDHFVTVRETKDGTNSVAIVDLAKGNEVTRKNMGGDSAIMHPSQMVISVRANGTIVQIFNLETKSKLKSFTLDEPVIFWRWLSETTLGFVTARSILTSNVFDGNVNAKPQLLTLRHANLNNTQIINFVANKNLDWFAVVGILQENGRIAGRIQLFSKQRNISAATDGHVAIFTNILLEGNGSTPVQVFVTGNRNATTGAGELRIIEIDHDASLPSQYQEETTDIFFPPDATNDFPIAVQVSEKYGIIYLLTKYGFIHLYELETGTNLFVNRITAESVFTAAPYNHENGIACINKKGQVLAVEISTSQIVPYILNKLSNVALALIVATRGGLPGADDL

[5] = biological target: T5, Saccharomyces cerevisiae clathrin heavy chain N-terminal domain (ScChc-NTD, 1-369) (Saccharomyces cerevisiae, UniProt P22137 1-369); assay: nanoDSF thermal shift; ScChc-NTD 8 µM incubated with eleven peptide concentrations (1:1 dilutions) for 15 min, heated 20-95 °C at 1 °C/min, SEC buffer (50 mM Tris pH 9, 150 mM NaCl, 0.5 mM TCEP); apparent KD from the Tm shift model, one to one binding assumed, global average over all boxes
T5 construct: Clathrin heavy chain N-terminal domain, Saccharomyces cerevisiae, residues 1-369; pETM-30 vector with a His-GST tag and a TEV cleavage site; also called WT NTD; source: E. coli BL21 (DE3), purified (Ni-NTA, TEV cleavage, reverse Ni-NTA, SEC)
T5 sequence (looked up): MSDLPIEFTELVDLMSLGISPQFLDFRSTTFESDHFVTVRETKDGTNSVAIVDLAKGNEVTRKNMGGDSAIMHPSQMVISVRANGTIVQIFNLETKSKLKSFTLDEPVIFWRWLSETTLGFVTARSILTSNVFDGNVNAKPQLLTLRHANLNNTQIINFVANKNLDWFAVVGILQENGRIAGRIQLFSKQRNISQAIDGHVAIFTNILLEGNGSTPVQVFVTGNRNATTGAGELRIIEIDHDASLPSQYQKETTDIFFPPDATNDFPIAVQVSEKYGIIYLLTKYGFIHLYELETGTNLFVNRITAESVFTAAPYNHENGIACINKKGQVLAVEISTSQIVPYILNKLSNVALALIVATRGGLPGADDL

B1: Ent1 CBM peptide (GYTLIDL) (peptide)
peptide: GYTLIDL
notes: also called Ent1 peptide; source: synthetic peptide, bought: NovoProLabs
For B1, the binding result [1] was “binds”, the Kd [2] was about 2050 µM and the “fold decrease in binding against WT NTD” value [3] was about 9 fold. For the same binder, the Kd [4] was about 166 µM and the Kd [5] was about 138 µM.

B2: Ent2 CBM peptide (GVSLIDL) (peptide)
peptide: GVSLIDL
notes: also called Ent2 peptide; source: synthetic peptide, bought: NovoProLabs
B2 was tested, and the binding result [1] was “binds”, the “fold decrease in affinity against WT NTD” value [2] was about 5 fold and the “fold decrease in binding against WT NTD” value [3] was about 9 fold. The Kd [4] was about 216 µM and the Kd [5] was about 177 µM.
